{
  "source": "patent US20260029420A1",
  "about": "“ANTI-CB2 ANTIBODIES AND THEIR USE IN A FLOW CYTOMETRY ASSAY TO MEASURE CELL SURFACE CB2 EXPRESSION” (Hoffmann-La Roche Inc., priority 2022, published 2026)",
  "molecules": {"B1": {"name": "hCB2-1/622: murine IgG3 monoclonal anti-human CB2 antibody, VH SEQ ID NO: 1, VL SEQ ID NO: 2, HC SEQ ID NO: 3, LC SEQ ID NO: 4 (antibody)", "heavy": "EVQLQQSGPELVKPGASVKISCKTSGYTFTEYTMHWVRQSHGKSLEWIGGIDRYNGDTYYNQKFKDKATLTVDRSSSTAYMELRSLTSEDSAVYFCARNGAMDYWGQGISVTVSSATTTAPSVYPLVPGCSDTSGSSVTLGCLVKGYFPEPVTVKWNYGALSSGVRTVSSVLQSGFYSLSSLVTVPSSTWPSQTVICNVAHPASKTELIKRIEPRIPKPSTPPGSSCPPGNILGGPSVFIFPPKPKDALMISLTPKVTCVVVDVSEDDPDVHVSWFVDNKEVHTAWTQPREAQYNSTFRVVSALPIQHQDWMRGKEFKCKVNNKALPAPIERTISKPKGRAQTPQVYTIPPPREQMSKKKVSLTCLVTNFFSEAISVEWERNGELEQDYKNTPPILDSDGTYFLYSKLTVDTDSWLQGEIFTCSVVHEALHNHHTQKNLSRSPGK", "light": "DVVMTQTPLSLPVSLGDQASISCRSSQSLVHSNGNTYLHWFLQKPGQSPKLLIYKVSIRFSGVPDRFSGSGSGTDFTLKISRVEAEDLGVYFCSQSTHVPPLTFGAGTKLELKRADAAPTVSIFPPSSEQLTSGGASVVCFLNNFYPKDINVKWKIDGSERQNGVLNSWTDQDSKDSTYSMSSTLTLTKDEYERHNSYTCEATHKTSTSPIVKSFNRNEC"}},
  "type_in_all_cases": "binding",
  "key": {"[1]": {"biological_target": "T1, CHODukx CRE hCB1 Cl.20 (Homo sapiens, UniProt P21554)", "T1 construct": "expressed in transfected cells", "T1 sequence (P21554 whole entry)": "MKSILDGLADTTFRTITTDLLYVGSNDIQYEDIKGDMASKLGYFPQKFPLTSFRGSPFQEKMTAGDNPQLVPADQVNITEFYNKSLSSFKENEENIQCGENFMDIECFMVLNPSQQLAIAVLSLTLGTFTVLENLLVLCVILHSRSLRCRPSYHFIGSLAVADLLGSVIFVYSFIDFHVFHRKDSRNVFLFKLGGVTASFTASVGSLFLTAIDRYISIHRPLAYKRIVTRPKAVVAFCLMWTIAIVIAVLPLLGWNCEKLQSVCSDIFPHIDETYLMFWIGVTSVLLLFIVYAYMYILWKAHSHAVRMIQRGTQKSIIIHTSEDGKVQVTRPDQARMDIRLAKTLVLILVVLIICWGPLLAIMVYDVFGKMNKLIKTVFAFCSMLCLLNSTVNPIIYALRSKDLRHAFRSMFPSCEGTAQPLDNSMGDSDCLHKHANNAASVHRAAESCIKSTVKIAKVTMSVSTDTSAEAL", "assay": "Western blot of cell lysates", "set-up": "key to Western Blot signal intensity: “−” no signal; “+”-“+++++” signal intensity; “+”-“+++++” signal intensity; “+”-“+++++” signal intensity; “+”-“+++++” signal intensity; “+”-“+++++” signal intensity", "description": "(§1) The positive clones (Table 1) were further characterized by immunofluorescence (IF; Table 2), Western Blot (Table 3, 1) and Immune precipitation (Table 4, 2) on full length hCB2, hCB1, mCB2 stable-transfected CHO-cell lines in addition to the 2 pANITA constructs.\n(§2) For Western blot analysis, cells were collected using enzyme free dissociation buffer (Cell dissociation buffer enzyme-free Hanks'-based, Gibco), and washed two times with PBS. To prepare cell lysate, 10^6 cells were lysed with 0.1 ml of lysis buffer (1% NP40, 10% glycerol, 2 mM EDTA, 137 mM NaCl, 20 mM TrisHCl, pH8, Protease Inhibitors) for 10 min on ice. The lysate was cleared by centrifugation at 20′000 g for 5 min. For SDS-PAGE cell lysate was resolved on precast 4-12% gradient gels (NuPAGE® Novex 4-12% Bis-Tris Gel, Invitrogen) with MES running buffer according to the manufacturer's directions. The separation of proteins was visualized by Colloidal Blue staining. The proteins were electrophoretically transferred to nitrocellulose membrane using a dry-blotting system (iBlot, Invitrogen). After blocking the membrane for 16 h in blocking buffer (5% Milk in PBS) at 4° C., specific proteins were detected with appropriate dilutions of mAbs in blocking buffer for 1 h at approximately 20° C. […]"}, "[2]": {"biological_target": "T2, CHO-A2 mCB2 (Mus musculus, UniProt P47936)", "T2 construct": "expressed in transfected cells", "T2 sequence (P47936 whole entry)": "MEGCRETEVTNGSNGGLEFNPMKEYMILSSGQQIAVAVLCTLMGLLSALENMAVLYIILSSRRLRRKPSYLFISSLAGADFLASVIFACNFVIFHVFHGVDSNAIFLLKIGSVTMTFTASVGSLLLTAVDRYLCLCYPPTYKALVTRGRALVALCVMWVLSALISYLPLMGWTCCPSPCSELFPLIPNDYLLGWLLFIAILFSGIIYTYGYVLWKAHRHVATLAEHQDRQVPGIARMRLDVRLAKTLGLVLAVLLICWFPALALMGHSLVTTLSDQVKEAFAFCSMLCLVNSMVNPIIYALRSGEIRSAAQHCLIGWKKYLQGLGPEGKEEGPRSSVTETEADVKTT", "assay": "Immunoprecipitation from whole cell lysates", "set-up": "key: “−” no signal; “+”-“+++++” signal intensity; “+”-“+++++” signal intensity; “+”-“+++++” signal intensity; “+”-“+++++” signal intensity; “+”-“+++++” signal intensity", "details": "CHO-A2 mCB2 lysate", "description": "as §1\n(§3) For immunoprecipitation (IP), whole cell lysates were incubated with the respective antibodies. IP was performed according to established protocols and subsequent western blot as described herein above."}, "[3]": {"biological_target": "T1, CHODukx CRE hCB1 Cl.20", "assay": "Immunoprecipitation from whole cell lysates", "set-up": "key: “−” no signal; “+”-“+++++” signal intensity; “+”-“+++++” signal intensity; “+”-“+++++” signal intensity; “+”-“+++++” signal intensity; “+”-“+++++” signal intensity", "details": "CHODukx CRE hCB1 Cl.20 lysate", "description": "as §1, §3"}, "[4]": {"biological_target": "T3, CHODukx CRE hCB2 Cl.90 (Homo sapiens, UniProt P34972)", "T3 construct": "expressed in transfected cells", "T3 sequence (P34972 whole entry)": "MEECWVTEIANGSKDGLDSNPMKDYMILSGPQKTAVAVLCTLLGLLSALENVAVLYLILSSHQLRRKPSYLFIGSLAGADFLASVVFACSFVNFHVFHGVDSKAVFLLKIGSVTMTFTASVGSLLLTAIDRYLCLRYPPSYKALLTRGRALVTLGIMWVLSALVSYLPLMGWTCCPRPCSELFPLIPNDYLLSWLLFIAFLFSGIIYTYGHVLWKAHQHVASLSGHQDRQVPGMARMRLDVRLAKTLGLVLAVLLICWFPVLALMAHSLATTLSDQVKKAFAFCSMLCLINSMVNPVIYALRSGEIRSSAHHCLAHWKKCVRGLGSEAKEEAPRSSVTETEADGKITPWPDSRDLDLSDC", "assay": "Immunoprecipitation from whole cell lysates", "set-up": "key: “−” no signal; “+”-“++++” signal intensity; “+”-“++++” signal intensity; “+”-“++++” signal intensity; “+”-“++++” signal intensity", "details": "CHODukx CRE hCB2 Cl.90 lysate", "description": "as §1, §3"}, "[5]": {"biological_target": "T2, CHO-A2 mCB2", "assay": "Western blot of cell lysates", "set-up": "key: “−” no signal; “+”-“+++++” signal intensity; “+”-“+++++” signal intensity; “+”-“+++++” signal intensity; “+”-“+++++” signal intensity; “+”-“+++++” signal intensity", "details": "CHO-A2 mCB2 lysate", "description": "as §1, §2"}, "[6]": {"biological_target": "T4, pANITA3.1 mCB2 (JB176) (Mus musculus, UniProt P47936)", "T4 construct": "expressed in transfected cells; host or cells: HEK293", "T4 sequence (P47936 with tags, fused parts or gaps)": "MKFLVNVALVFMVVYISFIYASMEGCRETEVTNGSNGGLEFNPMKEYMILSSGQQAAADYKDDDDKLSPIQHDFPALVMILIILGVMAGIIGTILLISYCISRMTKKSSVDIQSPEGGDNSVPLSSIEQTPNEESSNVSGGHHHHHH", "assay": "Immunoprecipitation from whole cell lysates", "set-up": "key to Immunoprecipitation signal intensity: “−” no signal; “+”-“+++++” signal intensity; “+”-“+++++” signal intensity; “+”-“+++++” signal intensity; “+”-“+++++” signal intensity; “+”-“+++++” signal intensity", "description": "as §1, §3"}, "[7]": {"system": "CHODukx negative", "assay": "Immunofluorescence on methanol-fixed cells, negative control", "set-up": "key to immunofluorescence signal intensity: “−” no fluorescence detected; “+”-“++++” intensity of fluorescent signal; “+”-“++++” intensity of fluorescent signal; “+”-“++++” intensity of fluorescent signal; “+”-“++++” intensity of fluorescent signal", "description": "as §1\nFor IF analysis, methanol-fixed cells were incubated for 20 min in a humid chamber at 37° C. with the respective hCB2 and mCB2 clones. After rinsing twice and washing for 15 min in PBS, 125 μg/ml FITC-conjugated […] anti-mouse IgG antibodies (RAM/IgG (H+L)/FITC, Nordic\nImmunological Laboratories) diluted in PBS was added and incubated for 20 min in a humid chamber at 37° C. Cells were rinsed twice and washed for 15 min in PBS, mounted with mounting solution (50% PBS 50% glycerol) and covered with a coverslip. Staining was assessed by fluorescence microscopy on a Leica CTR500 fluorescence microscope and a Leica DFC300 FX digital camera."}},
  "data": [
    {"molecule": "B1", "values": [
      {"measurement": "Western Blot signal intensity", "setting": "[1]; CHODukx CRE hCB1 Cl.20 lysate", "result": "−"},
      {"measurement": "Western blot detection", "setting": "[1]; hCB1", "result": "no mCB2, hCB1 or rat GIPR was detected"},
      {"measurement": "Immunoprecipitation signal intensity", "setting": "[2]", "result": "−"},
      {"measurement": "Immunoprecipitation signal intensity", "setting": "[3]", "result": "−"},
      {"measurement": "Immunoprecipitation signal intensity", "setting": "[4]", "result": "+"},
      {"measurement": "Western Blot signal intensity", "setting": "[5]", "result": "−"},
      {"measurement": "immunoprecipitation cross reactivity", "setting": "[6]; mCB2", "result": "no cross reactivity"},
      {"measurement": "Immunoprecipitation signal intensity", "setting": "[6]; pANITA3.1 mCB2 (JB176) lysate", "result": "−"},
      {"measurement": "immunofluorescence signal intensity", "setting": "[7]; CHODukx negative cells", "result": "−"},
      {"measurement": "immunofluorescence staining", "setting": "[7]; negative control cells", "result": "no staining"}
    ]}
  ]
}
